Laboratory results reported in article PMC12474171.

Columns and labels:
[1] = biological target: AAVpo.6 capsid (porcine adeno-associated virus po.6; VP1, VP2 and VP3) (adeno-associated virus AAVpo.6 (isolated from porcine tissues)); experiment: cryo-EM structure
[2] = biological target: AAVpo.1 capsid (porcine adeno-associated virus po.1; VP1, VP2 and VP3) (adeno-associated virus AAVpo.1 (isolated from porcine tissues)); experiment: cryo-EM structure

| Substance | stoichiometry N [1] | stoichiometry N [2] |
| --- | --- | --- |
| AAVpo.6 capsid (porcine adeno-associated virus po.6; VP1, VP2 and VP3) (complex) | 60 | – |
| AAVpo.1 capsid (porcine adeno-associated virus po.1; VP1, VP2 and VP3) (complex) | – | 60 |
